Results from IntAct's records for PubMed 17408621.

Target: ccnb2_human CCNB2 (UniProt O95067)
Chain of UniProt O95067 (O95067 whole entry): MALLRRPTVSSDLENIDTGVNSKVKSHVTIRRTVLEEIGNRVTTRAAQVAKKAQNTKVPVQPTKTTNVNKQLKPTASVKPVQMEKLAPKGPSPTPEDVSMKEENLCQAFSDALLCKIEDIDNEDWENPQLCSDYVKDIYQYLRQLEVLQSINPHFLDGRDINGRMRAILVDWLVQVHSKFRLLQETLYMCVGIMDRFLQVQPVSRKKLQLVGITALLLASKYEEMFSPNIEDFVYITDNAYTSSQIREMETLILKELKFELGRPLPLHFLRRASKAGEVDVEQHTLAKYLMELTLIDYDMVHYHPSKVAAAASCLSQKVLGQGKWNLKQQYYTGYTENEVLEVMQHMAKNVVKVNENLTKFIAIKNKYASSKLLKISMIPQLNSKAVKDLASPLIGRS

- effect of a mutation on the interaction: disrupting interaction
Substance: Filamin-A (Homo sapiens), P21333 S1436G
